# According to the Immune Epitope Database (IEDB):
# pIC50, pKd: −log10 of the molar value.
# Columns and labels:
# Conditions in all cases: source organism: Homo sapiens
# [1] = molecular target: HLA-A*33:01; assay: IEDB peptide-MHC binding, purified MHC/competitive/radioactivity; filed as Kd, often an IC50 or EC50 that approximates it; ≥ and ≤ were set here for values at or beyond the usual limits of such assays
# [2] = molecular target: HLA-A*68:01; assay: as above
# [3] = molecular target: HLA-A*31:01; assay: as above
# [4] = molecular target: HLA-A*11:01; assay: IEDB peptide-MHC binding, purified MHC/competitive/radioactivity; ≥ and ≤ were set here for values at or beyond the usual limits of such assays
# [5] = molecular target: HLA-A*03:01; assay: as above
Sequence,pKd [1],pKd [2],pKd [3],pIC50 [4],pIC50 [5]
ALNFPGSQK,≤ 5.00,≤ 5.00,≤ 5.00,8.34,8.07
LIYRRRLMK,,,,,8.26

# Results, then the sequence that gave them:
pKd [1],pKd [2],pKd [3],pIC50 [4],pIC50 [5],Sequence
≤ 5.00,5.33,≤ 5.00,6.50,7.44,IALNFPGSQK
,,,,7.28,QLVLHQILK
,,,,7.41,SLIYRRRLMK
